The nature of this series: protease stability score; higher = more stable; yeast display proteolysis, trypsin and chymotrypsin.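 Further: relative to predicted unfolded state with 0 unfolded-like and 1 meaning tenfold more protease.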
In the case of “DEIHEDFDRFLEEYLESLRTGDWKKVEELHDPNTRVDIGDKHVIGMDLLAHLETKDFIKRGARVDMHVRRFEIQGNKIIIHGELRIHYGDKHVRINIHLDIRKINGKWIIRHEEIR”, the protease stability score stood at 1.13.

With “DEIHEKVQLAAEIFEEIVRTGDEELFMRYMDPHVRLIDENEIYHGMDIWHKWLHERHEKLGAKHEEVKTRSLDLQGEKLRVEGDFVVNVNGRTFHHRLHLIYRKIDGQWRYEQISLE”, the protease stability score stood at 0.853.

Regarding “DEIHKDAHRFVELLLRLLRTGDEDSIEKLMDPHAKININGQERIGREETIELALHWRNDDHHIHDMITINGRVDVHGRVKGEFDGRHQEFTFRLIVLKVNGRWVNESHHYI”, the protease stability score was 0.83.

“DEIHKDAKEFTKRFIDSLHTGDWKELLEMFDPHTRIVVGDKEFIGMDEILRFERELGIEKVDYHLKHVEIRVQGEKADIHITGEIRFNGQTVDRELNIHARKIDGRWKVDEVNLDRR” displayed a protease stability score of 1.88.

“DEIHQFIEHMTKLLITALYTGDERMLEELADPHVKLDIGDKHSVGRENFVEMMKWLADHIRVRHTDIHDLKIYGEKTRVDMRVDGEVDGQRVEYRVEIFLFVVDGRLKRSSVHFK” showed a protease stability score of 1.09.

For “DEIKDHVEHASRLLLETYETGDEHTLERLVDPHVKLEVNGQEHVGRETTRWMLEFFKNLKIRIEDVRWQGNKIEIHSILHFNGKDLEMIYFAEKVDGRWVIRSVRTT”, the protease stability score was 1.38.

“DEIKESAEEAQRTWVHNSLTGNEEELSRNADPDVRVIIYVNGREIRLIGREFLEELMHRVKNLTIEVDEIRFQGDKIRFNERWTVNGVPRHVDLVMHKFNGKWHIHSINIHVV” gave a protease stability score of 1.15.

“DEIKKVALKMADLIFELYLTGNEELLRKLADPHMKLIIDGREFHGMHVSHEWILRELKEIRIEDWKIKDVHLQGNKVHIDLRVHGVVDGQREERDVKIHIIVINGRIHSMEMHKE” yielded a protease stability score of 2.

On to “DEIKRHFDEFIKVLREIIRTGDEEDLVRLMDPNVKLEVGDKRFHGMEVLDVLHKRADHLHEFDIHDWNIQGDKARVDLRLVGQFNGRTVIDNTTLWYEKIDGKWFIKSMRIH”, for which the protease stability score came to 1.18.

“DEIKTELEKWLREFIRDMRTGDEDTLRQQADPNMRLDVNGQEIIGWDRILREEIRLRHDLGLTQIHVTVKDHRIQGEKIHNRGEIIYGEFRLDTILIVKKVDGRWRATDMVVV” showed a protease stability score of 1.17.

Turning to “DEILHAWSRALTILLEIWKTGNEEEVEKMFDPNTRLIIGDKILHGREHIEDFVRRVDVADMHEFRVHDSHKYGEKIDIDGHVTGRLVIGDKEVRQETRVRSIIIKVDGKWIIHRLTFI”, the protease stability score worked out at 0.907.

Consider “DEINEDLERQARLFYHLWLTGDEEILEKLVDPHVRIILVFNGVPKQDHGREWLMKLFEEIRVEHFEIKTFEIQGEKAIMDTHEIIHVNGKRTRLRVHLWLTMVNGRIKTIEIRFV”, for which the protease stability score turned out to be 2.13.

Regarding “DEINKMLKEVLDRYTEAIRTGDEDILLELLDPNTRVIINGQDKHGREYWYTWFAELLKRVDHQDVRFHEIRLQGDKVQVDVELIFNAENHHLHIRTDIIIEKFDGRWIITEFRMH”, the protease stability score was determined as 1.38.

In turn, “DEIQRLMKYVFEEWVKWFLTGDEEKFNKMVDPDVRLIVNGQHSHGREKANEMWEIYYERFDYIHEFRVHSIRIQGDKVHVDVRLIGRQGDKTIDTRTEIHLVIIDGRIKRAEVRVE” yielded a protease stability score of 2.62.

With “DEIREEMEKVFRVFIHNMFTGDFEKLEELADPNARSKVDGVDDHGMHKFLRHWLHHVRRYGMKVEFEVHHIDVQGDKVQIDTRIVIDYNGRRFEWKSELIAVKIDGQWLIKRIIIH”, the protease stability score was determined as 1.6.

Sequence “DEIREESERFARKLVHDWQTGDWRSLLLLMDPNVRLILHFNGVEYRFHGMEIVLEWLKRLIERVDHVFFHVKDIRIQGDKIELRIEEEFRQGDKSRRHDVVLHLVVIDGKIKSISFEVL” returned a protease stability score of 2.7.

In turn, “DEIRKMVEESFEIILHSILTGDEHIEEFLADPHVRILINGVTFHGREEFHKLIEHYLKHWRIKDSKVDHVHAQGEKIEMRVTIHGTVDGQEQTREVIIIAKKVDGRWSMKHVEVR” showed a protease stability score of 2.08.

“DEITEHTRSLMEVMLRVWETGDWKRFRELADPNVRMNVNGREVHGRDSVAKEIYKMLSDLGVDHSTTHHVDLIGNKAHHDVRMFFNGRETEIRIDIVLINGKVREVNIEIHTR” came in with a protease stability score of 2.14.

The sequence “DEITETAERLLRLWVHNFETGNWKKMVDLIDPNARLDVNGRHIHGWEEIAKHLTDELREWRIREIRIRDVKFIDGVNHTHIESDIEYDGRRDRTEMRIIIVVVNGRIKSVKFEIL” yielded a protease stability score of 1.2.

Consider “DEITHEIEHNLKLLLKAWETGDEHLLTEMIDPHDKIHIGDKTIIGRELRLEIEKRLGAKVVEVEIKRIEVQGDKILMHGTIHIEIGDKRFERESRFVAHKFNGRWHQKSLDII”, for which the protease stability score was 1.21.

Turning to “DEITRELKHIFEEVIRAILTGDWRRLHHLLDPRVRSKFEFENRHVDLHGMETVLHWMERWSQELRVEDFHLNDFRVIGDYIVLDGRVQNRQGDKKIDVRVELIVFVVNGKVTELRETSR”, the protease stability score worked out at 1.17.

Sequence “DEITTLFRKILELMEHALKTGDWEIHKRLMDPHTKSNVNGVVAIGREELDKLWKELDKQVDHVEDSHFTEFRIQGDYIRIHVQIRIRVGDKFHDLKVDYHLVIINGVMKSSSVTFH” returned a protease stability score of 0.963.

For “DEIVEMVREIAEEILHAELTGDEDKFKKLIDPNVRLQINGKDIHGMEDFRKWNEEWRIHHIEVKHLDIFEGHSRMDGKLDGTINGQRRNLKTILEIKVVDGRVKEITIHVL”, the protease stability score came to 1.12.

For the sequence “DEIYEDIKHIVDLLSHAHETGDEHELKHLADPNVKWIINGVELVGWEDFRKLLEHLRHKRVHMDPRDVKRQGDYIHVTAELRFTGVFNGREREETFEVHLHMKKVNGRWLLTSVRVK”, the protease stability score was 1.48.

“DEKDEFNHKIAHQFSESLHTGDFKLLESLFDPNVRSDINGREIIGMEELVHFWEEWKRKFPNAKERYRTESIEHQGEKTISNMRVDLHQGDFHLHREWRVEIHIIDGVVKEVRIENR” yielded a protease stability score of 1.23.

With “DEKDEHMENLMREFMHSTLTGDEELLERMADPHVKVIVNGKELIGRESWRKWLEELEKRFKHAKFIWLLHRVDVQGEKANSDGVRRINFDGVNINLKTHIFIHVVNGKLKEIEIHDK”, the protease stability score was 1.33.

“DEKDEKLLRFAHEIIELFLTGNEERFTELLDPRVKLDIDGKNAVGREETQRLWEEILHRIDVMHIRIHRYKAQGNKVILDGLIHIEVGDKNEERHSRLHIHVYDGKIKSIRLEYH” returned a protease stability score of 2.08.

In turn, “DEKDELMERIARLMMEYLDTGDEENLNKLADPNVKIDIRIGDKVIDDHGMENLLHRLRHIRSNLRVHNFHAQGDFVKIDTRVTFHVNGQDIHHTVEVRLFIVNGKIHRIEFIFR” showed a protease stability score of 2.6.

For “DEKDKITQDLVKNIIDLFRTGNEDDLRRLADPHVQTHVNGRTIIGMEDASRKIKEILEELGIDHVHWHHVQAQGEKVEIHMEHRVGDKNWELIIRMDLVNGRIKRQEVELR”, the protease stability score is 0.927.

Take “DEKDKMSEVTLKLYIHWFLTGDWKSLFDLVDPHMQVRVGDKKFHGREQAVEEIERLLKRIDHITHIQERSFEIIGNKVHLDGELNVIIDGKRIVKDQIIIAVKIDGKWLLQIDEFE”: the protease stability score was 1.92.

The sequence “DEKDNVVEHLARRLIEAELTGDWKFLSELIDPNVRVQVGNKKSHGREEYVHIAEEWWIHEQHIRHVEIQGDKVHLEVETDMVVDGRRVRIEIEIHIHIINGRIKEIRINIV” returned a protease stability score of 0.989.

Turning to “DEKDRISKKIVELWMRALITGDEEEMDRMADPDVRIKYGDKVSHGMEEARETWEHIRWRDIRLDHVDSYNGRIRIDGTVHIEINGREDTTRVEIILHVIDGRIKEIRVIIR”, the protease stability score worked out at 1.3.

Turning to “DEKDRLSEELAKHLYRMMYTGDWERIFKMADPHVRLVIGDKEFHGRENFEETLRDHLEKIKNATMRLDDIELQGDKVHIFFTIHVNGREVEVEVHIRVIDGRIHHVDVQVRWV”, the protease stability score worked out at 1.49.

For the sequence “DEKEDHMRKIALILIKDWLTGNEESLRHMADPNVRVHIHQGNKNIHKHGMEALRELWEEIRIRHFNLERQNVINGVVFIDGRVDGEVDGRRVDTDVEVIIVIVNGRMKLLSRHIE”, the protease stability score was 1.34.

As for “DEKEEAARQIMTWLLEVLLTGDERLFEHNADPNVRIDVDGVDLVGMELFRHEVRRIDHMESRMRVRRVTVQGDKVRMEVEIEVTLFINGKEIRHRRESELIVLKIDGRWIIKSTHVK”, the protease stability score stood at 1.56.

“DEKEEEMEIASELALHVWETGDPDEFLKLADPHVKIDFDGVDIHGMDKEHERWKRVKNLTMHIKRFSYQGDKVHLDVILIVNGRTETIHIIASKVNGRWLIKRVIINRR” returned a protease stability score of 1.37.

The sequence “DEKEEEYHRILREWMHWLLTGDWDKLLNNVDPHAKLTVNGREIHGMHLAVKLLVDTMRELRFHIEVKDTKVFNGVAFVDLRLHIHIGDKEHKNRSEVTLVIIDGRIHTIVIHDR” gave a protease stability score of 1.56.

“DEKEEEYKEMIRIMVEYLETGNEEDMNRLLDPHTKTEYHQGDKSDEFHGREEFMRLWQELGIDHFRVRDVDIVDGRVRIESELIVGDKRFNSYFFLIVVNGRATSASIHVE” yielded a protease stability score of 2.27.

Sequence “DEKEEFMKKLSKLFVELWITGNEEIFNKLMDPNTRSDVNGVENIGRDEIIRFWKEWRRRFGIKHIEVEHVHAIGDKIEIHGIQKAENHHTEIHIRVNVVDGRIREVEVRTH” gave a protease stability score of 2.26.

For “DEKEEFTRRFAQILIELWKTGDEEDMNNNMDPDVQNHSEFNGREVHLIGMELYVEHSEQWLNRVKNARIIWRHVDAQGDKILIHGDLIVNGKRIHVELDFYIVNGRIKSITIHER”, the protease stability score came to 2.02.

As to “DEKEEHFTTMMEIWLEIFRTGDWERLEKLMDPNVRHREVVDGRHLHLHGMENVSRLLHERENKLGANHIDLTHADIVNGRASIEGRVNYGDKRHKIRFDIHIVNGRVQHIQDIKI”, the protease stability score is -0.034.

On to “DEKEEHLDELARLFWEVHHTGNEEVFEELFDPRMRLIFNGQQYIGMEKAVKIESRVKNITVRLETYRVINGRIEIHENWRQGEKEIKFEIRIVVIDGVAKEMERIFREK”, for which the protease stability score was 1.09.

Turning to “DEKEEHSKELVRLILRLILTGDEEILEDLMDPNVRANIDGREVHGWHEFVRILEKFLKEWRIHTTSLKRIRIIGDKAEVDLHEVGIVNGKKLEQDFHIHIEFVNGRLKEVHIEIR”, the protease stability score was determined as 1.69.

The sequence “DEKEEILRQIMELMLRLLLTGDEDRLTELIDPNVRVVFEGRTYHGMDEVTELWKEIRIDSFRFRDVKNVGDKARLHGEQKVRVGNYSHEHKSEYQLFVVNGRAKSLEIRWH” returned a protease stability score of 1.31.

As for “DEKEEILVDLFKHFLEAMLTGDEEQVNRLVDPNARHDIDGVEHHGWEFLEWFLSRVDHIELLEVKRVRNIDGRIEADLHIDITVNGKKERHDVEVHIVIIDGVFHSIKVIKH”, the protease stability score worked out at 2.23.

Sequence “DEKEELSKRAFERMLHWLETGDFDKFERYADPNVKTVIGDKYFIGRERVSRTVLHWLEVLGVDHRHVEDSDVHTFENHAVMDLHTRVHVDGQDREIRFILLVTKVNGRWNVTSIKIEIR” had a protease stability score of 0.661.

The sequence “DEKEELTRKLLELLLLAWSTGDEEVLMMLADPDVRITQGDKITHGRDELRREIEEIWRKFGADHIEVEPEDSRVQGDKVNNRTTLWLRINGRTIDFNVHVIIVIVNGVIHSMRFEIR” yielded a protease stability score of 2.35.

Source of the values: the NTF2 design screens of Basanta et al. (2020).
